These results are taken from paper PMC6784373, “Development of a Label-Free Electrochemical Aptasensor for the Detection of Tau381 and its Preliminary Application in AD and Non-AD Patients’ Sera”.

The data set concerns the target tau381 (1N3R as printed) (human, UniProt P10636-4 1-381). The experiment in a line: electrochemical aptasensor (DPV, EIS); aptamer immobilized on Au NP/thionin/carboxyl graphene GCE; linear 1.0-100 pM, LOD 0.70 pM (sensor values, not Kd); 0.1 M PBS pH 7.0, 5 uM aptamer for immobilization, 30 min tau381 incubation, DPV -0.6 to 0.2 V; EIS in 10 mM [Fe(CN)6]3-/4-; temperature not stated. As to conditions: protein: commercial.

tau381 (1N3R as printed), sequence (P10636 other isoform, or with tags, fused parts or gaps): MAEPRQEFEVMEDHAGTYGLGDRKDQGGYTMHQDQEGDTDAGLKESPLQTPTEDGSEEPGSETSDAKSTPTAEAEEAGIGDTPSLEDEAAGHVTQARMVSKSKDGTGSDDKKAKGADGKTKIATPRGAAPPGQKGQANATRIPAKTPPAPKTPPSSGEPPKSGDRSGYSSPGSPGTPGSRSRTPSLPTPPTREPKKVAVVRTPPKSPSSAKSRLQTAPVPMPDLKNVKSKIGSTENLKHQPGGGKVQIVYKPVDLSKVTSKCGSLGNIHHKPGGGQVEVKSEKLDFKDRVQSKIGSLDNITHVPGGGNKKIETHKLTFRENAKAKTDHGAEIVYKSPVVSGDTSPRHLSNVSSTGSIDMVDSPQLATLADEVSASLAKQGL

GCGGAGCGTGGCAGG (ssDNA, 5'-H2N) [tau381 aptamer (5'-amino)]: the binding result is “binds”.
